Laboratory results taken from the MegaScale stability set (Tsuboyama et al. 2023).

B1: 2K2A (parent)
chain: ELREAFRLYDKEGNGYISTDVMREILAELDETLSSEDLDAMIDEIDADGSGTVDFEEFMGVMT
B2: EEHEE_rd4_0763 (parent)
chain: LTVHVGNVTYHFDNPEQAEEWAKRMAKKYQGQIHVKDGQFRIE

Variants of: B1
Test: folding stability dG (cDNA display proteolysis); higher = more stable
Settings: PBS, room temperature

| Variant | folding stability dG |
| --- | --- |
| HLREAFRLYDKEGNGYISTDVMREILAELDETLSSEDLDAMIDEIDADGSGTVDFEEFMGVMT [E1H] | 2.1 kcal/mol |
| QLREAFRLYDKEGNGYISTDVMREILAELDETLSSEDLDAMIDEIDADGSGTVDFEEFMGVMT [E1Q] | 2.08 kcal/mol |
| FLREAFRLYDKEGNGYISTDVMREILAELDETLSSEDLDAMIDEIDADGSGTVDFEEFMGVMT [E1F] | 2.36 kcal/mol |
| WLREAFRLYDKEGNGYISTDVMREILAELDETLSSEDLDAMIDEIDADGSGTVDFEEFMGVMT [E1W] | 2.65 kcal/mol |
| LLREAFRLYDKEGNGYISTDVMREILAELDETLSSEDLDAMIDEIDADGSGTVDFEEFMGVMT [E1L] | 2.19 kcal/mol |
| PLREAFRLYDKEGNGYISTDVMREILAELDETLSSEDLDAMIDEIDADGSGTVDFEEFMGVMT [E1P] | 1.84 kcal/mol |
| KLREAFRLYDKEGNGYISTDVMREILAELDETLSSEDLDAMIDEIDADGSGTVDFEEFMGVMT [E1K] | 2.27 kcal/mol |
| DLREAFRLYDKEGNGYISTDVMREILAELDETLSSEDLDAMIDEIDADGSGTVDFEEFMGVMT [E1D] | 2.41 kcal/mol |
| TLREAFRLYDKEGNGYISTDVMREILAELDETLSSEDLDAMIDEIDADGSGTVDFEEFMGVMT [E1T] | 2.21 kcal/mol |
| VLREAFRLYDKEGNGYISTDVMREILAELDETLSSEDLDAMIDEIDADGSGTVDFEEFMGVMT [E1V] | 1.98 kcal/mol |
| NLREAFRLYDKEGNGYISTDVMREILAELDETLSSEDLDAMIDEIDADGSGTVDFEEFMGVMT [E1N] | 2.25 kcal/mol |
| SLREAFRLYDKEGNGYISTDVMREILAELDETLSSEDLDAMIDEIDADGSGTVDFEEFMGVMT [E1S] | 2.28 kcal/mol |
| GLREAFRLYDKEGNGYISTDVMREILAELDETLSSEDLDAMIDEIDADGSGTVDFEEFMGVMT [E1G] | 2.03 kcal/mol |
| ILREAFRLYDKEGNGYISTDVMREILAELDETLSSEDLDAMIDEIDADGSGTVDFEEFMGVMT [E1I] | 2.02 kcal/mol |
| MLREAFRLYDKEGNGYISTDVMREILAELDETLSSEDLDAMIDEIDADGSGTVDFEEFMGVMT [E1M] | 2.02 kcal/mol |
| RLREAFRLYDKEGNGYISTDVMREILAELDETLSSEDLDAMIDEIDADGSGTVDFEEFMGVMT [E1R] | 2.25 kcal/mol |
| YLREAFRLYDKEGNGYISTDVMREILAELDETLSSEDLDAMIDEIDADGSGTVDFEEFMGVMT [E1Y] | 2.41 kcal/mol |
| ALREAFRLYDKEGNGYISTDVMREILAELDETLSSEDLDAMIDEIDADGSGTVDFEEFMGVMT [E1A] | 2.29 kcal/mol |
| EVREAFRLYDKEGNGYISTDVMREILAELDETLSSEDLDAMIDEIDADGSGTVDFEEFMGVMT [L2V] | 1.14 kcal/mol |
| EAREAFRLYDKEGNGYISTDVMREILAELDETLSSEDLDAMIDEIDADGSGTVDFEEFMGVMT [L2A] | 1.23 kcal/mol |
| EFREAFRLYDKEGNGYISTDVMREILAELDETLSSEDLDAMIDEIDADGSGTVDFEEFMGVMT [L2F] | 1.88 kcal/mol |

| Variant | folding stability dG |
| --- | --- |
| ENREAFRLYDKEGNGYISTDVMREILAELDETLSSEDLDAMIDEIDADGSGTVDFEEFMGVMT [L2N] | 0.689 kcal/mol |
| EWREAFRLYDKEGNGYISTDVMREILAELDETLSSEDLDAMIDEIDADGSGTVDFEEFMGVMT [L2W] | 2.66 kcal/mol |
| EEREAFRLYDKEGNGYISTDVMREILAELDETLSSEDLDAMIDEIDADGSGTVDFEEFMGVMT [L2E] | 0.678 kcal/mol |
| ECREAFRLYDKEGNGYISTDVMREILAELDETLSSEDLDAMIDEIDADGSGTVDFEEFMGVMT [L2C] | 2.73 kcal/mol |
| EDREAFRLYDKEGNGYISTDVMREILAELDETLSSEDLDAMIDEIDADGSGTVDFEEFMGVMT [L2D] | 0.869 kcal/mol |
| EYREAFRLYDKEGNGYISTDVMREILAELDETLSSEDLDAMIDEIDADGSGTVDFEEFMGVMT [L2Y] | 1.96 kcal/mol |
| ETREAFRLYDKEGNGYISTDVMREILAELDETLSSEDLDAMIDEIDADGSGTVDFEEFMGVMT [L2T] | 0.594 kcal/mol |
| ERREAFRLYDKEGNGYISTDVMREILAELDETLSSEDLDAMIDEIDADGSGTVDFEEFMGVMT [L2R] | 0.34 kcal/mol |
| EGREAFRLYDKEGNGYISTDVMREILAELDETLSSEDLDAMIDEIDADGSGTVDFEEFMGVMT [L2G] | 0.65 kcal/mol |
| EKREAFRLYDKEGNGYISTDVMREILAELDETLSSEDLDAMIDEIDADGSGTVDFEEFMGVMT [L2K] | 0.383 kcal/mol |
| EHREAFRLYDKEGNGYISTDVMREILAELDETLSSEDLDAMIDEIDADGSGTVDFEEFMGVMT [L2H] | 1.16 kcal/mol |
| EQREAFRLYDKEGNGYISTDVMREILAELDETLSSEDLDAMIDEIDADGSGTVDFEEFMGVMT [L2Q] | 0.705 kcal/mol |
| EPREAFRLYDKEGNGYISTDVMREILAELDETLSSEDLDAMIDEIDADGSGTVDFEEFMGVMT [L2P] | 0.726 kcal/mol |
| ESREAFRLYDKEGNGYISTDVMREILAELDETLSSEDLDAMIDEIDADGSGTVDFEEFMGVMT [L2S] | 0.529 kcal/mol |
| EMREAFRLYDKEGNGYISTDVMREILAELDETLSSEDLDAMIDEIDADGSGTVDFEEFMGVMT [L2M] | 1.74 kcal/mol |
| EIREAFRLYDKEGNGYISTDVMREILAELDETLSSEDLDAMIDEIDADGSGTVDFEEFMGVMT [L2I] | 1.51 kcal/mol |
| ELDEAFRLYDKEGNGYISTDVMREILAELDETLSSEDLDAMIDEIDADGSGTVDFEEFMGVMT [R3D] | 1.62 kcal/mol |
| ELEEAFRLYDKEGNGYISTDVMREILAELDETLSSEDLDAMIDEIDADGSGTVDFEEFMGVMT [R3E] | 2.16 kcal/mol |
| ELAEAFRLYDKEGNGYISTDVMREILAELDETLSSEDLDAMIDEIDADGSGTVDFEEFMGVMT [R3A] | 1.99 kcal/mol |
| ELFEAFRLYDKEGNGYISTDVMREILAELDETLSSEDLDAMIDEIDADGSGTVDFEEFMGVMT [R3F] | 2.11 kcal/mol |

Variants of: B2
Test: as above
Settings: PBS, room temperature

| Variant | folding stability dG |
| --- | --- |
| LTVHVGNVTYHFDNPEQAEEWAKRMAKKHQGQIHVKDGQFRIE [Y29H] | 1.32 kcal/mol |
| LTVHVGNVTYHFDNPEQAEEWAKRMAKKDQGQIHVKDGQFRIE [Y29D] | 0.496 kcal/mol |
| LTVHVGNVTYHFDNPEQAEEWAKRMAKKWQGQIHVKDGQFRIE [Y29W] | 1.61 kcal/mol |
| LTVHVGNVTYHFDNPEQAHEWAKRMAKKYQGQIHVKDGQFRIE [E19H] | 1.72 kcal/mol |
| LTVHVGNVTYHFDNPEQAGEWAKRMAKKYQGQIHVKDGQFRIE [E19G] | 1.21 kcal/mol |
| LTVHVGNVTYHFDNPEQANEWAKRMAKKYQGQIHVKDGQFRIE [E19N] | 1.35 kcal/mol |
| LTVHVGNVTYHFDNPEQALEWAKRMAKKYQGQIHVKDGQFRIE [E19L] | 2.25 kcal/mol |
| LTVHVGNVTYHFDNPEQAYEWAKRMAKKYQGQIHVKDGQFRIE [E19Y] | 2.35 kcal/mol |
| LTVHVGNVTYHFDNPEQAEEWAKRMAKKYQGQIHVKDGQFAIE [R41A] | 1.4 kcal/mol |
| LTVHVGNVTYHFDNPEQAEEWAKRMAKKYQGVIHVKDGQFRIE [Q32V] | 2.02 kcal/mol |
